The text below walks through data of patent US20140294866A1 (Amgen, published 2014).

Assay [1] concerns the target T1, recombinant mature myostatin (human, produced in E. coli) (human, UniProt O14793 267-375).
T1 construct: mature; also called GDF-8
T1 sequence (looked up): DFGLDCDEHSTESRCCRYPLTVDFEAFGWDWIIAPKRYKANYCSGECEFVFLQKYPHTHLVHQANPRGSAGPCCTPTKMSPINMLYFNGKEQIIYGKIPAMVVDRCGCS
Briefly: KinExA solution based assay or BIAcore assay (not said which).

Assay [2] concerns the target T1, recombinant mature myostatin (human, …). Nature of the assay: cell-based or functional assay.
Assay [3] shares this target. Briefly: cell-based or functional assay. This is another data set of the same source.

B1: 2x mTN8-19-21 peptibody (Fc fusion)
chain: GGGGGAQSEYQGLCTRWPWMCPPQGWKLEGSGSATGGSGSTASSGSGSATGSEYQGLCTRWPWMCPPQGWKLE
notes: Human Fc form
The term Kd denotes the equilibrium constant for the complex coming apart. For the molecule B1, the Kd in assay [1] came out at 6 pM.

B2: 2x mTN8-19-33 peptibody (Fc fusion)
chain: GGGGGAQPESQGHCTRWPWMCPPQGWGLEGSGSATGGSGSTASSGSGSATGPESQGHCTRWPWMCPPQGWGLE
Regarding B2, the Kd in assay [1] was 3 pM.

As to QGHCTRWPWMCPPY [TN8-19 peptide], in assay [2], the “IC50 (read off the curve); luciferase activity, C2C12 pMARE-luc reporter cells, 4 nM myostatin” value was ~20 µM.

B3: 2x mTN8-19-7 peptibody (Fc fusion)
chain: GGGGGAQLADHGQCIRWPWMCPPEGWELEGSGSATGGSGSTASSGSGSATGLADHGQCIRWPWMCPPEGWELE
Take B3: the Kd in assay [1] is 12 pM.

B4: recombinant human activin receptor IIB/Fc chimera (R&D Systems) (Fc fusion, UniProt Q13705 19-134, looked up, not shown: a dimerising Fc or GST)
chain: SGRGEAETRECIYYNANWELERTNQSGLERCEGEQDKRLHCYASWRNSSGTIELVKKGCWLDDFNCYDRQECVATEENPQVYFCCCEGNFCNERFTHLPEAGGPEVTYEPPPTAPT
For the molecule B4, the “IC50 (nM), C2C12 pMARE-luc myostatin activity assay” value in assay [3] was ~83 nM.
